These molecules were tested on 3-methylcrotonic acid.
Type: biochemical, Yersinia frederiksenii
Design: key: “+” representing a low increase in activity; “++++” representing a high increase in activity

| Molecule | Activity relative to WT |
| --- | --- |
| K391I-L432W-L434M (protein) MFLKSLREQINLLKRQGDLRIINRPVDSYLEAAAIIRRSTETKAPVPLMTNIKGYPGCSIVGGLAALSSNPEYPLSRVAMSLGLSTTASAQSIVQYLIDGLKKTPYLPVEIDSNSAPCKQNILRGEDASLAHFPIPQVHQHDGNRYVNTWGVFIVESPDGQWCNWSIQRVQYLNDRQMIALVFPSQHISDIWEEWVKIGKPMPYALVQGCEPIVPYIAGLPLLERNVNEAEYIGALYGKGIEVVKCETHDLRVPASSEVVIEGYFAITREGVEGPFGEFAGYIPNENSLQPILSITAISWQDDPIWPVVAEGKPVDEYHTCSGIGDAAAIQNVLLTANLPVSFVWVPLYSACHLMIVSINRHWRQTHPDLTSEQLTKKVGDVIHQTRNSIILPKIVVLDDDVDPADTESLLWALATRIHPERKRYFYESCIWPMLSCYSEEERHNRKGKRVIIDALLPENHGAISSFDYAYPDDIKQRVLMHWETDFSHD | + |
| L432F-L434W-S436A (protein) MFLKSLREQINLLKRQGDLRIINRPVDSYLEAAAIIRRSTETKAPVPLMTNIKGYPGCSIVGGLAALSSNPEYPLSRVAMSLGLSTTASAQSIVQYLIDGLKKTPYLPVEIDSNSAPCKQNILRGEDASLAHFPIPQVHQHDGNRYVNTWGVFIVESPDGQWCNWSIQRVQYLNDRQMIALVFPSQHISDIWEEWVKIGKPMPYALVQGCEPIVPYIAGLPLLERNVNEAEYIGALYGKGIEVVKCETHDLRVPASSEVVIEGYFAITREGVEGPFGEFAGYIPNENSLQPILSITAISWQDDPIWPVVAEGKPVDEYHTCSGIGDAAAIQNVLLTANLPVSFVWVPLYSACHLMIVSINRHWRQTHPDLTSEQLTKKVGDVIHQTRNSIKLPKIVVLDDDVDPADTESLLWALATRIHPERKRYFYESCIFPWLACYSEEERHNRKGKRVIIDALLPENHGAISSFDYAYPDDIKQRVLMHWETDFSHD | + |
| R387A-L432F-L434W-S436A (protein) MFLKSLREQINLLKRQGDLRIINRPVDSYLEAAAIIRRSTETKAPVPLMTNIKGYPGCSIVGGLAALSSNPEYPLSRVAMSLGLSTTASAQSIVQYLIDGLKKTPYLPVEIDSNSAPCKQNILRGEDASLAHFPIPQVHQHDGNRYVNTWGVFIVESPDGQWCNWSIQRVQYLNDRQMIALVFPSQHISDIWEEWVKIGKPMPYALVQGCEPIVPYIAGLPLLERNVNEAEYIGALYGKGIEVVKCETHDLRVPASSEVVIEGYFAITREGVEGPFGEFAGYIPNENSLQPILSITAISWQDDPIWPVVAEGKPVDEYHTCSGIGDAAAIQNVLLTANLPVSFVWVPLYSACHLMIVSINRHWRQTHPDLTSEQLTKKVGDVIHQTANSIKLPKIVVLDDDVDPADTESLLWALATRIHPERKRYFYESCIFPWLACYSEEERHNRKGKRVIIDALLPENHGAISSFDYAYPDDIKQRVLMHWETDFSHD | + |
| N388M-L432F-L434W (protein) MFLKSLREQINLLKRQGDLRIINRPVDSYLEAAAIIRRSTETKAPVPLMTNIKGYPGCSIVGGLAALSSNPEYPLSRVAMSLGLSTTASAQSIVQYLIDGLKKTPYLPVEIDSNSAPCKQNILRGEDASLAHFPIPQVHQHDGNRYVNTWGVFIVESPDGQWCNWSIQRVQYLNDRQMIALVFPSQHISDIWEEWVKIGKPMPYALVQGCEPIVPYIAGLPLLERNVNEAEYIGALYGKGIEVVKCETHDLRVPASSEVVIEGYFAITREGVEGPFGEFAGYIPNENSLQPILSITAISWQDDPIWPVVAEGKPVDEYHTCSGIGDAAAIQNVLLTANLPVSFVWVPLYSACHLMIVSINRHWRQTHPDLTSEQLTKKVGDVIHQTRMSIKLPKIVVLDDDVDPADTESLLWALATRIHPERKRYFYESCIFPWLSCYSEEERHNRKGKRVIIDALLPENHGAISSFDYAYPDDIKQRVLMHWETDFSHD | + |
| K394R-L432F-L434W (protein) MFLKSLREQINLLKRQGDLRIINRPVDSYLEAAAIIRRSTETKAPVPLMTNIKGYPGCSIVGGLAALSSNPEYPLSRVAMSLGLSTTASAQSIVQYLIDGLKKTPYLPVEIDSNSAPCKQNILRGEDASLAHFPIPQVHQHDGNRYVNTWGVFIVESPDGQWCNWSIQRVQYLNDRQMIALVFPSQHISDIWEEWVKIGKPMPYALVQGCEPIVPYIAGLPLLERNVNEAEYIGALYGKGIEVVKCETHDLRVPASSEVVIEGYFAITREGVEGPFGEFAGYIPNENSLQPILSITAISWQDDPIWPVVAEGKPVDEYHTCSGIGDAAAIQNVLLTANLPVSFVWVPLYSACHLMIVSINRHWRQTHPDLTSEQLTKKVGDVIHQTRNSIKLPRIVVLDDDVDPADTESLLWALATRIHPERKRYFYESCIFPWLSCYSEEERHNRKGKRVIIDALLPENHGAISSFDYAYPDDIKQRVLMHWETDFSHD | + |
| C430S-L432F-L434W (protein) MFLKSLREQINLLKRQGDLRIINRPVDSYLEAAAIIRRSTETKAPVPLMTNIKGYPGCSIVGGLAALSSNPEYPLSRVAMSLGLSTTASAQSIVQYLIDGLKKTPYLPVEIDSNSAPCKQNILRGEDASLAHFPIPQVHQHDGNRYVNTWGVFIVESPDGQWCNWSIQRVQYLNDRQMIALVFPSQHISDIWEEWVKIGKPMPYALVQGCEPIVPYIAGLPLLERNVNEAEYIGALYGKGIEVVKCETHDLRVPASSEVVIEGYFAITREGVEGPFGEFAGYIPNENSLQPILSITAISWQDDPIWPVVAEGKPVDEYHTCSGIGDAAAIQNVLLTANLPVSFVWVPLYSACHLMIVSINRHWRQTHPDLTSEQLTKKVGDVIHQTRNSIKLPKIVVLDDDVDPADTESLLWALATRIHPERKRYFYESSIFPWLSCYSEEERHNRKGKRVIIDALLPENHGAISSFDYAYPDDIKQRVLMHWETDFSHD | + |
| L432F-L434W-S436N (protein) MFLKSLREQINLLKRQGDLRIINRPVDSYLEAAAIIRRSTETKAPVPLMTNIKGYPGCSIVGGLAALSSNPEYPLSRVAMSLGLSTTASAQSIVQYLIDGLKKTPYLPVEIDSNSAPCKQNILRGEDASLAHFPIPQVHQHDGNRYVNTWGVFIVESPDGQWCNWSIQRVQYLNDRQMIALVFPSQHISDIWEEWVKIGKPMPYALVQGCEPIVPYIAGLPLLERNVNEAEYIGALYGKGIEVVKCETHDLRVPASSEVVIEGYFAITREGVEGPFGEFAGYIPNENSLQPILSITAISWQDDPIWPVVAEGKPVDEYHTCSGIGDAAAIQNVLLTANLPVSFVWVPLYSACHLMIVSINRHWRQTHPDLTSEQLTKKVGDVIHQTRNSIKLPKIVVLDDDVDPADTESLLWALATRIHPERKRYFYESCIFPWLNCYSEEERHNRKGKRVIIDALLPENHGAISSFDYAYPDDIKQRVLMHWETDFSHD | + |
| N388M-L432F-L434W-S436A (protein) MFLKSLREQINLLKRQGDLRIINRPVDSYLEAAAIIRRSTETKAPVPLMTNIKGYPGCSIVGGLAALSSNPEYPLSRVAMSLGLSTTASAQSIVQYLIDGLKKTPYLPVEIDSNSAPCKQNILRGEDASLAHFPIPQVHQHDGNRYVNTWGVFIVESPDGQWCNWSIQRVQYLNDRQMIALVFPSQHISDIWEEWVKIGKPMPYALVQGCEPIVPYIAGLPLLERNVNEAEYIGALYGKGIEVVKCETHDLRVPASSEVVIEGYFAITREGVEGPFGEFAGYIPNENSLQPILSITAISWQDDPIWPVVAEGKPVDEYHTCSGIGDAAAIQNVLLTANLPVSFVWVPLYSACHLMIVSINRHWRQTHPDLTSEQLTKKVGDVIHQTRMSIKLPKIVVLDDDVDPADTESLLWALATRIHPERKRYFYESCIFPWLACYSEEERHNRKGKRVIIDALLPENHGAISSFDYAYPDDIKQRVLMHWETDFSHD | + |
| C430P-L432F-L434W-S436A (protein) MFLKSLREQINLLKRQGDLRIINRPVDSYLEAAAIIRRSTETKAPVPLMTNIKGYPGCSIVGGLAALSSNPEYPLSRVAMSLGLSTTASAQSIVQYLIDGLKKTPYLPVEIDSNSAPCKQNILRGEDASLAHFPIPQVHQHDGNRYVNTWGVFIVESPDGQWCNWSIQRVQYLNDRQMIALVFPSQHISDIWEEWVKIGKPMPYALVQGCEPIVPYIAGLPLLERNVNEAEYIGALYGKGIEVVKCETHDLRVPASSEVVIEGYFAITREGVEGPFGEFAGYIPNENSLQPILSITAISWQDDPIWPVVAEGKPVDEYHTCSGIGDAAAIQNVLLTANLPVSFVWVPLYSACHLMIVSINRHWRQTHPDLTSEQLTKKVGDVIHQTRNSIKLPKIVVLDDDVDPADTESLLWALATRIHPERKRYFYESPIFPWLACYSEEERHNRKGKRVIIDALLPENHGAISSFDYAYPDDIKQRVLMHWETDFSHD | + |
| C430S-L432F-L434W-S436A (protein) MFLKSLREQINLLKRQGDLRIINRPVDSYLEAAAIIRRSTETKAPVPLMTNIKGYPGCSIVGGLAALSSNPEYPLSRVAMSLGLSTTASAQSIVQYLIDGLKKTPYLPVEIDSNSAPCKQNILRGEDASLAHFPIPQVHQHDGNRYVNTWGVFIVESPDGQWCNWSIQRVQYLNDRQMIALVFPSQHISDIWEEWVKIGKPMPYALVQGCEPIVPYIAGLPLLERNVNEAEYIGALYGKGIEVVKCETHDLRVPASSEVVIEGYFAITREGVEGPFGEFAGYIPNENSLQPILSITAISWQDDPIWPVVAEGKPVDEYHTCSGIGDAAAIQNVLLTANLPVSFVWVPLYSACHLMIVSINRHWRQTHPDLTSEQLTKKVGDVIHQTRNSIKLPKIVVLDDDVDPADTESLLWALATRIHPERKRYFYESSIFPWLACYSEEERHNRKGKRVIIDALLPENHGAISSFDYAYPDDIKQRVLMHWETDFSHD | + |
| K394R-L432F-L434W-S436A (protein) MFLKSLREQINLLKRQGDLRIINRPVDSYLEAAAIIRRSTETKAPVPLMTNIKGYPGCSIVGGLAALSSNPEYPLSRVAMSLGLSTTASAQSIVQYLIDGLKKTPYLPVEIDSNSAPCKQNILRGEDASLAHFPIPQVHQHDGNRYVNTWGVFIVESPDGQWCNWSIQRVQYLNDRQMIALVFPSQHISDIWEEWVKIGKPMPYALVQGCEPIVPYIAGLPLLERNVNEAEYIGALYGKGIEVVKCETHDLRVPASSEVVIEGYFAITREGVEGPFGEFAGYIPNENSLQPILSITAISWQDDPIWPVVAEGKPVDEYHTCSGIGDAAAIQNVLLTANLPVSFVWVPLYSACHLMIVSINRHWRQTHPDLTSEQLTKKVGDVIHQTRNSIKLPRIVVLDDDVDPADTESLLWALATRIHPERKRYFYESCIFPWLACYSEEERHNRKGKRVIIDALLPENHGAISSFDYAYPDDIKQRVLMHWETDFSHD | + |

— patent publication US20250327097A1, “ORGANISMS PRODUCING LESS CROTONIC ACID” (Global Bioenergies, priority 2021, published 2025)
